Test [1] deals with NMDA receptors (NR1 and NR2). Nature of the test: NMDA receptor activity in Xenopus oocytes, two-electrode voltage clamp. It counts as cell-based. The essentials: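 Xenopus oocytes injected with NR1 and NR2 cDNA (100 ng/40 nl) and kept 4-5 days at 18 °C in ND96. Two-electrode voltage clamp at −60 mV in Mg2+-free ND96, pH 7.6. Currents evoked by […].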
Another test relates to endogenous CaCC. Nature of the test: Endogenous Ca2+-activated channel (CaCC) activation in Xenopus oocytes. It counts as cell-based, Xenopus laevis.
A further test addresses LPA1 receptor (Homo sapiens, UniProt Q92633). Nature of the test: Intracellular free Ca2+ (Fura-2AM) in LPA1-expressing B103 cells. It counts as cell-based. Also on record: host or cells: B103 rat neuroblastoma cells. The source says:
LPA family receptors are endogenous to cells of most organs. B103 rat neuroblastoma cells, known as LPA receptor-null cells (Valentine et al., Biochim Biophys Acta 1780. 597-605) were transiently transfected with a plasmid (vector) carrying one of genes coding for LPA1(edg-2), LPA2(edg-4), LPA3(edg-7), LPA4, LPA5 and LPA6 receptors or a plasmid carrying none of them (empty vector). Two or three days after transfection, the cells are suspended, and made permeable. Then, the permeable cells are treated with Fura-2AM, a fluorescent dye binding to calcium, and then with gintonin, followed by spectrofluorephotometry to examine whether gintonin induces an increase in intracellular free Ca^2+ level.
(1) preparing large quantities of plasmids carrying respective LPA family receptor genes and an empty plasmid carrying none of them through amplification and purification (maxi-preparation); (2) verifying the expression of LPA receptors wherein B103 cells are transfected with haematoglutin (HA)-tagged LPA receptors, and then subjected to Western blotting analysis using an anti-HA primary antibody and a horseradish peroxidase (HRP)-conjugated secondary antibody to develop a color; (3) verifying the expression of LPA receptors wherein B1-3 cells are transfected with haematoglutin (HA)-tagged LPA receptors, and then subjected to confocal laser microscopy using an anti-HA antibody and a fluorescence dye Cy3-conjugated secondary antibody; (4) transfecting the empty plasmid and each of the plasmids carrying LPA family receptor genes into B103 cells; (5) treating the transfected B103 cells with trypsin (0.05% trypsin with EDTA, w/v) 2-3 days post-transfection, to give a cell suspension; (6) culturing the suspended B103 cells with Fura-2AM (2.5 μM); and (7) treating the suspended B103 cells with gintonin and quantifying a change in intracellular free Ca^2+ level in a cuvette by spectrofluorephotometry using Fura-2AM.
Human LPA (lysophosphatidic acid) receptor subtypes, orphan GPCRs (G protein coupled receptors) and plasmids carrying GPCRs were purchased from Missouri S&T resource Center (www.cDNA.org).
The transient transfection of LPA receptor subtypes was carried out with the aid of Lipofectamine 2000 of Invitrogen. A plasmid (10.8 μg) carrying each LPA receptor (LPA1, LPA2, LPA3, LPA4, LPA5, and LPA6) was transfected into B103 cells grown in 10-cm dishes, and incubated for 2 days prior for use in experiments.
In this Example, gintonin, or ginsenoside Rb1 or Rg1 was examined for its ability to induce a transient increase of [Ca^2+]i in Fura-2AM-loaded B103 cells which were transfected with LPA receptors and in Fura-2AM-loaded B103 cells which were not transfected with LPA receptors. […]

The mark [2] stands for this setting: Kil6425 10 μM, U73122 1 μM, 2-APB 100 μM, BAPTA 100 μM 3 h.

LPA1 receptor, sequence (Q92633 whole entry): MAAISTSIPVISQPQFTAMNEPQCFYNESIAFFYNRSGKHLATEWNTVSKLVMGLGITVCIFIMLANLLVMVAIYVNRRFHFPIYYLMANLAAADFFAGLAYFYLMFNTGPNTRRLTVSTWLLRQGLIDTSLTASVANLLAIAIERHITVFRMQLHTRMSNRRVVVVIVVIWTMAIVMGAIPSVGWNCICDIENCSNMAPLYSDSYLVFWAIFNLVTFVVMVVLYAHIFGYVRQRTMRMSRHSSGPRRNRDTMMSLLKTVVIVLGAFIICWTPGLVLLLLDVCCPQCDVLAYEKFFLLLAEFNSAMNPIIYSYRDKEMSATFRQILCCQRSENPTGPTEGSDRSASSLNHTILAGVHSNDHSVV

In the case of `Cc1noc(-c2ccc(CSCCC(=O)O)cc2)c1NC(=O)OC(C)c1ccccc1Cl` (stereo not drawn) [Kil6425], in test [1] (setting [2]), the “effect on NMDA-induced inward current” value is “had no influences on NMDA-NMDA receptor activation”. Besides, the “effect on gintonin-induced NMDA receptor activation” value in test [1] (gintonin 1 μg/ml, Kil6425 10 μM, U73122, U73343 1 μM, 2-APB 100 μM, BAPTA 100 μM 3 h, genistein 10 μM, PP2, PP3 30 μM) is listed as “blocked gintonin-induced NMDA receptor activation”. In addition, in the test with endogenous CaCC (setting [2]), the “effect on gintonin-induced CaCC activation” value is listed as “reduced gintonin-induced CaCC activation”. In addition, the “effect on gintonin-induced intracellular calcium increase” value at LPA1 receptor (LPA1-expressing cells treated with antagonist) was “did not increase in intracellular calcium level even in the presence of gintonin”.

B1: gintonin: ginseng-derived glycolipoprotein; structural protein of ginseng major latex-like protein (MLP151) and ribonuclease-like storage proteins; crude gintonin used in tests (protein)
chain 1: MGLTGKLICQTGIKSDGDVFHELFGTRPHHVPNITPANIQGCDLHEGEFGKVGSVVIWNYSIDGNAMIAKEEIVAIDEEDKSVTFKVVEGHLFEEFKSIVFSVHVDTKGEDNLVTWSIDYEKLNESVKDPTSYLDFLLSVTRDIEAHHLPK
chain 2: RSDYPWAMFALRLQWPAGFCEVNNACDTKSLLNTFTIHGLYPYNAKGTPALYCDGTAFDVNSVSDFLAEMHLAWPSHETNTEDIQFWEHEWKKHGRCSEALLKQTDYFRTALAFRKAFDIVGLLNQEGIYPNNDLYRPKMIKEAIKKHLNAVPEIDFTKNENSEYVLTDINVCVNQQATRFVDCPTDDATDDYRLKFVRLPSKMKFADPRTNSII
The term EC50 denotes the concentration needed to bring the measured effect to its halfway point. As for B1, in test [1] (NMDA receptor-expressing Xenopus oocytes), the “ED50, NMDA receptor-mediated inward currents” value came out at 0.49 ± 0.10 µg/mL. For the same molecule, the CaCC activation result with endogenous CaCC (gintonin 1 μg/ml, NMDA receptor-expressing Xenopus oocytes) is reported as “increases CaCC”. Also, the “transient increase of [Ca2+]i when extracellular Ca2+ was depleted” value with LPA1 receptor (Ca2+-free buffer containing 0.2 mM EGTA, LPA1-expressing cells) is recorded as “at a greatly lowered level”. The EC50 in the test with LPA1 receptor (LPA1 receptor, B103 cells, read-out: EC50, LPA receptor-mediated intracellular calcium increase) worked out at 0.1 ± 0.02 nM. Besides, in the test with LPA1 receptor (gintonin 1 μg/ml, LPA1-expressing B103 cells), the “increase in intracellular calcium level” value amounted to 185.9 ± 12.8 µM.

(Values after US20140234868A1, “USE FOR GLYCOLIPOPROTEIN GINTONIN, ISOLATED AND IDENTIFIED FROM GINSENG, AS A NATURAL MEDICAL-PLANT DERIVED LIGAND” (KONKUK UNIVERSITY INDUSTRIAL COOPERATION CORP., priority 2011, published 2014).)
